Results taken from doi:10.1101/2025.06.27.661974 (bioRxiv, 2025).

Biological target: the molecule itself
Test: SEC-MALS

B1: Flag-UBE2O-TwinStrep (recombinant Homo sapiens UBE2O, purified) (enzyme, human, UniProt Q9C0C9 1-1292, looked up)
chain: MADPAAPTPAAPAPAQAPAPAPEAVPAPAAAPVPAPAPASDSASGPSSDSGPEAGSQRLLFSHDLVSGRYRGSVHFGLVRLIHGEDSDSEGEEEGRGSSGCSEAGGAGHEEGRASPLRRGYVRVQWYPEGVKQHVKETKLKLEDRSVVPRDVVRHMRSTDSQCGTVIDVNIDCAVKLIGTNCIIYPVNSKDLQHIWPFMYGDYIAYDCWLGKVYDLKNQIILKLSNGARCSMNTEDGAKLYDVCPHVSDSGLFFDDSYGFYPGQVLIGPAKIFSSVQWLSGVKPVLSTKSKFRVVVEEVQVVELKVTWITKSFCPGGTDSVSPPPSVITQENLGRVKRLGCFDHAQRQLGERCLYVFPAKVEPAKIAWECPEKNCAQGEGSMAKKVKRLLKKQVVRIMSCSPDTQCSRDHSMEDPDKKGESKTKSEAESASPEETPDGSASPVEMQDEGAEEPHEAGEQLPPFLLKEGRDDRLHSAEQDADDEAADDTDDTSSVTSSASSTTSSQSGSGTSRKKSIPLSIKNLKRKHKRKKNKITRDFKPGDRVAVEVVTTMTSADVMWQDGSVECNIRSNDLFPVHHLDNNEFCPGDFVVDKRVQSCPDPAVYGVVQSGDHIGRTCMVKWFKLRPSGDDVELIGEEEDVSVYDIADHPDFRFRTTDIVIRIGNTEDGAPHKEDEPSVGQVARVDVSSKVEVVWADNSKTIILPQHLYNIESEIEESDYDSVEGSTSGASSDEWEDDSDSWETDNGLVEDEHPKIEEPPIPPLEQPVAPEDKGVVISEEAATAAVQGAVAMAAPMAGLMEKAGKDGPPKSFRELKEAIKILESLKNMTVEQLLTGSPTSPTVEPEKPTREKKFLDDIKKLQENLKKTLDNVAIVEEEKMEAVPDVERKEDKPEGQSPVKAEWPSETPVLCQQCGGKPGVTFTSAKGEVFSVLEFAPSNHSFKKIEFQPPEAKKFFSTVRKEMALLATSLPEGIMVKTFEDRMDLFSALIKGPTRTPYEDGLYLFDIQLPNIYPAVPPHFCYLSQCSGRLNPNLYDNGKVCVSLLGTWIGKGTERWTSKSSLLQVLISIQGLILVNEPYYNEAGFDSDRGLQEGYENSRCYNEMALIRVVQSMTQLVRRPPEVFEQEIRQHFSTGGWRLVNRIESWLETHALLEKAQALPNGVPKASSSPEPPAVAELSDSGQQEPEDGGPAPGEASQGSDSEGGAQGLASASRDHTDQTSETAPDASVPPSVKPKKRRKSYRSFLPEKSGYPDIGFPLFPLSKGFIKSIRGVLTQFRAALLEAGMPECTEDK
- stoichiometry N: 2
